# Measurements from US10752675B2, “Compounds for treating the remyelination blockade in diseases associated with the expression of HERV-W envelope protein” (GENEURO S.A., priority 2012, dated 2020).
# Entries after “also recorded” stand apart in the source; their conditions may differ.
# B1: GNbAC1: recombinant humanized anti-Env IgG4 monoclonal antibody comprising the CDRs of SEQ ID No. 1 to 6 (antibody, chains of the INN, looked up, V domains shown)
# VH: QVQLVQSGAEVKKPGSSVKVSCKASGYTFTDYEMHWVRQAPGQGLEWIGAVAPETGGTAYNQKFKGRATITADKSTSTAYMELSSLRSEDTAVYYCTSTVVPFAYWGQGTLVTVSS
# VL: QIQLTQSPSSLSASVGDRVTITCSASSSVSYMYWYQQKPGKAPKAWIYRTSNLASGVPSRFSGSGSGTDYTLTISSLQPEDFATYYCQQYQSLPLTFGGGTKVEIK
# How the values were obtained:
# human OPC = assay: Expression of CNPase in human OPC in primary culture stimulated by MSRV-Env, with or without GNbAC1 (immunocytochemistry); type: cell-based; conditions: for CNPase positive cells, normalized to control condition (buffer = 100%): pooled data
# Procedure: Full length recombinant MSRV-Env was produced and purified by PX′Therapeutics (548 aa; 61.44 KDa) (batch 110719-1). The initial concentration was 0.6 mg/ml (9.76 μM). MSRV-Env Buffer (20 mM Trizma-HCl, pH 7.5, 150 mM NaCl, 1.5% SDS, 10 mM DTT) was provided by PX′Therapeutics. This solution was used as a negative control. GNbAC1 (Batch T96/bAC1/B1; GMP production) was produced and purified by Polymun Scientific, Vienna, Austria. The initial concentration was 10 mg/ml (68.03 μM).
# Human OPC were stimulated with the different treatments either by coating solutions on the cell culture plate surface before cells seeding or by adding them in the cell culture medium after cells seeding. In any case, labtek 8-wells chamber slides (Nunc) were previously coated with poly-L-lysine (Sigma-Aldrich) overnight at 37° C.
# The different treatments were diluted in PBS under a sterile laminar flow hood (Fischer Bioblock, France) and the Labtek 8 wells chambers slides (Nunc; 250 μl per well) were coated as follows: • MSRV-Env (1 μg/ml) coated for 2 hours at 37° C. • MSRV-Env Buffer (same dilution than MSRV-Env) coated for 2 hours at 37° C. • MSRV-Env+GNbAC1 A1: MSRV-Env (1 μg/ml) and GNbAC1 (7.35 μg/ml=50 nM) mixture coated for 2 hours at 37° C. • MSRV-Env+GNbAC1 A2: MSRV-Env (1 μg/ml) and GNbAC1 (29.4 μg/ml=200 nM) mixture coated for 2 hours at 37° C. • MSRV-Env+GNbAC1 B1: MSRV-Env (1 μg/ml) coated for 2 hours at 37° C., washed with PBS and subsequently coated with GNbAC1 (7.35 μg/ml=50 nM) for 1 hour at 37° C. • MSRV-Env+GNbAC1 B2: MSRV-Env (1 μg/ml) coated for 2 hours at 37° C., washed with PBS and subsequently coated with GNbAC1 (29.4 μg/ml=200 nM) for 1 hour at 37° C. • GNbAC1 A1 alone: GNbAC1 (7.35 μg/ml=50 nM) coated for 2 hours at 37° C. • GNbAC1 A2 alone: GNbAC1 (29.4 μg/ml=200 nM) coated for 2 hours at 37° C. • GNbAC1 B1 alone: PBS for 2 hours at 37° C., then coated with GNbAC1 (7.35 μg/ml=50 nM) for 1 hour at 37° C. • GNbAC1 B2 alone: PBS for 2 hours at 37° C., then coated with GNbAC1 (29.4 μg/ml=200 nM) for 1 hour at 37° C. • BSA (1 μg/ml) coated for 2 hours at 37° C. • BSA+GNbAC1 A1: BSA (1 μg/ml) and GNbAC1 (7.35 μg/ml=50 nM) mixture coated for 2 hours at 37° C. • BSA+GNbAC1 A2: BSA (1 μg/ml) and GNbAC1 (29.4 μg/ml=200 nM) mixture coated for 2 hours at 37° C. • BSA+GNbAC1 B1: BSA (1 μg/ml) coated for 2 hours at 37° C., washed with PBS and subsequently coated with GNbAC1 (7.35 μg/ml=50 nM) for 1 hour at 37° C. • BSA+GNbAC1 B2: BSA (1 μg/ml) coated for 2 hours at 37° C., washed with PBS and subsequently coated with GNbAC1 (29.4 μg/ml=200 nM) for 1 hour at 37° C. Human Oligodendrocyte Precursor Cells Culture
# The vial containing the human OPC was placed in a 37° C. water bath and gently agitated by rotation until the content was completely thawed. The cells were gently resuspended with a 1 ml Gilson pipette. Then, they were diluted in complete OPCM, and seeded into the 8-wells labtek culture vessels (7000 cells/cm^2=10000 cells per well) previously coated with poly-L-lysine (0.01%, Sigma) and with (or without) the treatments described above (see 3.2.1.1) under a sterile laminar flow hood (Fischer Bioblock, France). The cultures were incubated at 37° C.; 5% CO2 until subsequent immunocytochemistry experiments. The growth medium was changed the next day to remove the residual DMSO and unattached cells in the cultures treated for 72 hours.
# After 3 hours of pre-cultivation (see 3.2.1.2) of the human OPC in the 8-well labtek culture vessels, the cells were incubated at 37° C. for 24 hours or 72 hours in 8-wells labteks (250 μl/well) with the addition of the following solutions: • MSRV-Env Buffer, used as a negative control, added in complete cell culture medium • MSRV-Env added at 3 nM (0.184 μg/ml) in complete cell culture medium • MSRV-Env (3 nM)+GNbAC1 (200 nM; 29.4 μg/ml) mixture added in complete cell culture medium • GNbAC1 (200 nM) alone added in complete cell culture medium Expression of TLR4 and Myelination Markers in OPC In Vitro […]
# [1] = system: MSRV-Env induced EAE in C57BL/6 mice; assay: Rotarod test, Example 3.B (MSRV-Env induced EAE); type: in vivo; conditions: GNbAC1 500 μg/mouse given alone, all relevant speeds (16, 26, 29 rpm)
# Procedure: 1 day before each immunization, mice were transferred in their home cages, from the holding room to the experimental room. Mice were habituated to the experimental room for 15 min. Mice then received two trials at 10 increasing speed levels, ranging from 7 to 40 rpm. Individual delays before falling off the rotarod (for the two trials at each speed level) was recorded until 60 sec. Thus, training and performance on the Rotarod system were determined for each animal.
# The ROTAROD test results are expressed as kinetics of the mean of individual scores for each group with SEM indicated by bars, for each test day and for each test speed within the discriminating range for neuromotor impairment in present conditions (16 to 29 rpm).
# They are calculated for each individual mouse, for each test day and for each speed value, as the relative gain or loss of time on Rotarod (before falling), compared to the first test day at the same speed (D-7, before starting the disease induction in relevant groups). The value is calculated as “Time on Rotarod at dayX”−“Time at Day-7 for the same mouse at the same speed”. […]
molecule,measurement,setting,value
B1,effect on percentage of CNPase positive OPC without MSRV-Env,"human OPC; GNbAC1 50 nM or 200 nM coated alone or with BSA 1 μg/ml, 24 hours",no effect
same,effect on the decrease of CNPase positive cells induced by coated MSRV-Env,"human OPC; GNbAC1 50 nM or 200 nM, protocols GNbAC1-A and GNbAC1-B, 24 hours",significantly inhibits; also recorded: fully inhibits MSRV-Env effect
same,percentage of CNPase positive cells,"human OPC; GNbAC1 200 nM alone in culture medium, 24 hours",74±2%
same,effect on CNPase expression of GNbAC1 alone in culture medium,"human OPC; GNbAC1 200 nM alone, 24 hours",no effect; also recorded: does not show any effect alone
same,effect on the inhibition of CNPase expression induced by coated MSRV-Env,"human OPC; GNbAC1 200 nM, both protocols, 24 hours, OPC ICC 03",completely reverses; also recorded: fully inhibits MSRV-Env effect
same,percentage of CNPase positive cells,"human OPC; GNbAC1-A 50 nM (mixture with MSRV-Env 1 μg/ml coated), 24 hours, OPC ICC 02",69±4%
same,percentage of CNPase positive cells,"human OPC; GNbAC1-A 200 nM (mixture with MSRV-Env 1 μg/ml coated), 24 hours, OPC ICC 02",80±2%
same,"CNPase positive cells, normalized to control condition (buffer = 100%)",human OPC; GNbAC1-A 200 nM with coated MSRV-Env,102±1%
same,percentage of CNPase positive cells,"human OPC; GNbAC1-A 200 nM, coated MSRV-Env 1 μg/ml, 24 hours, OPC ICC 03",90±2%
same,percentage of CNPase positive cells,"human OPC; GNbAC1-B 50 nM (coated after MSRV-Env 1 μg/ml), 24 hours, OPC ICC 02",96±3%
same,percentage of CNPase positive cells,"human OPC; GNbAC1-B 200 nM (coated after MSRV-Env 1 μg/ml), 24 hours, OPC ICC 02",76±4%
same,"CNPase positive cells, normalized to control condition (buffer = 100%)",human OPC; GNbAC1-B 200 nM with coated MSRV-Env,101±1%
same,percentage of CNPase positive cells,"human OPC; GNbAC1-B 200 nM, coated MSRV-Env 1 μg/ml, 24 hours, OPC ICC 03",91±4%
same,percentage of CNPase positive cells,"human OPC; MSRV-Env 3 nM + GNbAC1 200 nM in culture medium, 24 hours",76±2%
same,effect on the decrease of CNPase expression induced by MSRV-Env in culture medium,"human OPC; MSRV-Env 3 nM, GNbAC1 200 nM, 24 hours",fully antagonizes; also recorded: inhibits completely this effect
same,"Rotarod, improvement of neurological deficit",[1],significantly the most efficient product
